According to doi:10.1101/2021.05.01.442081:

Molecular target: T1, GST-FOXD3 (Mus musculus, UniProt Q61060 1-465)
T1 sequence: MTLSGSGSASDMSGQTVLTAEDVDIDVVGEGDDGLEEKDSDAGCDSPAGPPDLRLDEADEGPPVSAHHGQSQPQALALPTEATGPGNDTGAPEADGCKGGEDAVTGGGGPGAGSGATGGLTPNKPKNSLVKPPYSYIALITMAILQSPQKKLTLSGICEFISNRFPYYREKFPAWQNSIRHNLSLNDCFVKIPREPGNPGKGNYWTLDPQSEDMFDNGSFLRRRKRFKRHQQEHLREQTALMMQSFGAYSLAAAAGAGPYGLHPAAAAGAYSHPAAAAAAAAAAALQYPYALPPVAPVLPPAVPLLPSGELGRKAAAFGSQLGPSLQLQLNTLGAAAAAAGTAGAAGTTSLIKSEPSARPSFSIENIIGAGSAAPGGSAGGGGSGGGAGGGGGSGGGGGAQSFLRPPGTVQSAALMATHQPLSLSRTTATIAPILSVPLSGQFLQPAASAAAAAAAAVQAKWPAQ
Assay: EMSA

B1: MERVL-LTR (dsDNA)
DNA 1: AGACTCAAAGCAAAACAGGCTCCTAGAGGGGAGGT
DNA 2: ACCTCCCCTCTAGGAGCCTGTTTTGCTTTGAGTCT
  binding result: binds
